Results from patent US20110189729.

Target: lambda integrase Int-h/218 h/218 mutant (substitutions not given) (Bacteriophage lambda) (UniProt P03700)
Experiment: cell_activity
Conditions: CHO-DG44

With “CTGCTTTTTTATACTAAGTTGGCATTATAAAAAAGCATTGCTTATCAATTTGTTGCAACGAACAGGTCACTATCAGTCAAAATAAAATCATTATTTGATTTC / GAAATCAAATAATGATTTTATTTTGACTGATAGTGACCTGTTCGTTGCAACAAATTGATAAGCAATGCTTTTTTATAATGCCAACTTAGTATAAAAAAGCAG / CTGCTTTTTTATACTAACTTG / CAAGTTAGTATAAAAAAGCAG [attL ; attB]” the activity (% fluorescent cells) (attL x attB, with IHF and XIS, PCR verified) was 2.3.

In the case of “CTGCTTTTTTATACTAAGTTGGCATTATAAAAAAGCATTGCTTATCAATTTGTTGCAACGAACAGGTCACTATCAGTCAAAATAAAATCATTATTTGATTTC / GAAATCAAATAATGATTTTATTTTGACTGATAGTGACCTGTTCGTTGCAACAAATTGATAAGCAATGCTTTTTTATAATGCCAACTTAGTATAAAAAAGCAG / TCTGTTACAGGTCACTAATACCATCTAAGTAGTTGATTCATAGTGACTGCATATGTTGTGTTTTACAGTATTATGTAGTCTGTTTTTTATGCAAAATCTAATTTAATATATTGATATTTATATCATTTTACGTTTCTCGTTCAGCTTTTTTATACTAACTTG / CAAGTTAGTATAAAAAAGCTGAACGAGAAACGTAAAATGATATAAATATCAATATATTAAATTAGATTTTGCATAAAAAACAGACTACATAATACTGTAAAACACAACATATGCAGTCACTATGAATCAACTACTTAGATGGTATTAGTGACCTGTAACAGA [attL ; attR]”, the activity (% fluorescent cells) (attL x attR, with IHF and XIS, PCR verified) is reported as 3.2.

“CTGCTTTTTTATACTAAGTTGGCATTATAAAAAAGCATTGCTTATCAATTTGTTGCAACGAACAGGTCACTATCAGTCAAAATATAATCATTATTTGATTTC / GAAATCAAATAATGATTATATTTTGACTGATAGTGACCTGTTCGTTGCAACAAATTGATAAGCAATGCTTTTTTATAATGCCAACTTAGTATAAAAAAGCAG / CTGCTTTTTTATACTAACTTG / CAAGTTAGTATAAAAAAGCAG [attL.a ; attB]” gave an activity (% fluorescent cells) (attL.a x attB, with IHF and XIS, PCR verified) of 2.

In the case of “CTGCTTTTTTATACTAAGTTGGCATTATAAAAAAGCATTGCTTATCAATTTGTTGCAACGAACAGGTCACTATCAGTCAAAATATAATCATTATTTGATTTC / GAAATCAAATAATGATTATATTTTGACTGATAGTGACCTGTTCGTTGCAACAAATTGATAAGCAATGCTTTTTTATAATGCCAACTTAGTATAAAAAAGCAG / GCTGTTACAGGTCACTAATACCATCTACGTAGTTGATTCATATTGTCTGCATATCTTGTGTTTTACAGTATTATCTAGTCTGTTTTTTATCCAAAATCTAATTTATTATATTGATATTTATATCATTTTACGTTTCTCGTTCAGCTTTTTTATACTAACTTG / CAAGTTAGTATAAAAAAGCTGAACGAGAAACGTAAAATGATATAAATATCAATATAATAAATTAGATTTTGGATAAAAAACAGACTAGATAATACTGTAAAACACAAGATATGCAGACAATATGAATCAACTACGTAGATGGTATTAGTGACCTGTAACAGC [attL.a ; attR.b]”, the activity (% fluorescent cells) (attL.a x attR.b, with IHF and XIS, PCR verified) is reported as 1.2.

Sequence “CTGCTTTTTTATACTAAGTTGGCATTATAAAAAAGCATTGCTTATCAATTTGTTGCAACGAACAGGTCACTATCAGTCAAAATATAATCATTATTTGATTTC / GAAATCAAATAATGATTATATTTTGACTGATAGTGACCTGTTCGTTGCAACAAATTGATAAGCAATGCTTTTTTATAATGCCAACTTAGTATAAAAAAGCAG / GCTGTTACAGGTCACTAATACCATCTATGTAGTTGATTCATATTGTCTGCATATCTTGTGTTTTACAGTATTATCTAGTCTGTTTTTTATCCAAAATCTAATTTATTATATTGATATTTATATCATTTTACGTTTCTCGTTCAGCTTTTTTATACTAACTTG / CAAGTTAGTATAAAAAAGCTGAACGAGAAACGTAAAATGATATAAATATCAATATAATAAATTAGATTTTGGATAAAAAACAGACTAGATAATACTGTAAAACACAAGATATGCAGACAATATGAATCAACTACATAGATGGTATTAGTGACCTGTAACAGC [attL.a ; attR.a]” has an activity (% fluorescent cells) (attL.a x attR.a, with IHF and XIS, PCR verified) of 2.3.

Sequence “GCTGTTACAGGTCACTAATACCATCTACGTAGTTGATTCATATTGTCTGCATATCTTGTGTTTTACAGTATTATCTAGTCTGTTTTTTATCCAAAATCTAATTTATTATATTGATATTTATATCATTTTACGTTTCTCGTTCAGCTTTTTTATACTAAGTTGGCATTATAAAAAAGCATTGCTTATCAATTTGTTGCAACGAACAGGTCACTATCAGTCAAAATATAATCATTATTTGATTTC / GAAATCAAATAATGATTATATTTTGACTGATAGTGACCTGTTCGTTGCAACAAATTGATAAGCAATGCTTTTTTATAATGCCAACTTAGTATAAAAAAGCTGAACGAGAAACGTAAAATGATATAAATATCAATATAATAAATTAGATTTTGGATAAAAAACAGACTAGATAATACTGTAAAACACAAGATATGCAGACAATATGAATCAACTACGTAGATGGTATTAGTGACCTGTAACAGC / CTGCTTTTTTATACTAACTTG / CAAGTTAGTATAAAAAAGCAG [attP.b ; attB]” has an activity (% fluorescent cells) (attP.b x attB, with IHF, 0.3% without IHF plasmid) of 1.2.

For “GCTGTTACAGGTCACTAATACCATCTACGTAGTTGATTCATATTGTCTGCATATCTTGTGTTTTACAGTATTATCTAGTCTGTTTTTTATCCAAAATCTAATTTATTATATTGATATTTATATCATTTTACGTTTCTCGTTCAGCTTTTTTATACTAAGTTGGCATTATAAAAAAGCATTGCTTATCAATTTGTTGCAACGAACAGGTCACTATCAGTCAAAATATAATCATTATTTGATTTC / GAAATCAAATAATGATTATATTTTGACTGATAGTGACCTGTTCGTTGCAACAAATTGATAAGCAATGCTTTTTTATAATGCCAACTTAGTATAAAAAAGCTGAACGAGAAACGTAAAATGATATAAATATCAATATAATAAATTAGATTTTGGATAAAAAACAGACTAGATAATACTGTAAAACACAAGATATGCAGACAATATGAATCAACTACGTAGATGGTATTAGTGACCTGTAACAGC / GCTGTTACAGGTCACTAATACCATCTACGTAGTTGATTCATATTGTCTGCATATCTTGTGTTTTACAGTATTATCTAGTCTGTTTTTTATCCAAAATCTAATTTATTATATTGATATTTATATCATTTTACGTTTCTCGTTCAGCTTTTTTATACTAAGTTGGCATTATAAAAAAGCATTGCTTATCAATTTGTTGCAACGAACAGGTCACTATCAGTCAAAATATAATCATTATTTGATTTC / GAAATCAAATAATGATTATATTTTGACTGATAGTGACCTGTTCGTTGCAACAAATTGATAAGCAATGCTTTTTTATAATGCCAACTTAGTATAAAAAAGCTGAACGAGAAACGTAAAATGATATAAATATCAATATAATAAATTAGATTTTGGATAAAAAACAGACTAGATAATACTGTAAAACACAAGATATGCAGACAATATGAATCAACTACGTAGATGGTATTAGTGACCTGTAACAGC [attP.b ; attP.b]”, the activity (% fluorescent cells) (attP.b x attP.b, with IHF, 0.4% without IHF plasmid, 2% in Example 2 cotransfection without IHF (p190)) was 1.5.

In the case of “GCTGTTACAGGTCACTAATACCATCTATGTAGTTGATTCATATTGTCTGCATATCTTGTGTTTTACAGTATTATCTAGTCTGTTTTTTATCCAAAATCTAATTTATTATATTGATATTTATATCATTTTACGTTTCTCGTTCAGCTTTTTTATACTAAGTTGGCATTATAAAAAAGCATTGCTTATCAATTTGTTGCAACGAACAGGTCACTATCAGTCAAAATATAATCATTATTTGATTTC / GAAATCAAATAATGATTATATTTTGACTGATAGTGACCTGTTCGTTGCAACAAATTGATAAGCAATGCTTTTTTATAATGCCAACTTAGTATAAAAAAGCTGAACGAGAAACGTAAAATGATATAAATATCAATATAATAAATTAGATTTTGGATAAAAAACAGACTAGATAATACTGTAAAACACAAGATATGCAGACAATATGAATCAACTACATAGATGGTATTAGTGACCTGTAACAGC / GCTGTTACAGGTCACTAATACCATCTATGTAGTTGATTCATATTGTCTGCATATCTTGTGTTTTACAGTATTATCTAGTCTGTTTTTTATCCAAAATCTAATTTATTATATTGATATTTATATCATTTTACGTTTCTCGTTCAGCTTTTTTATACTAAGTTGGCATTATAAAAAAGCATTGCTTATCAATTTGTTGCAACGAACAGGTCACTATCAGTCAAAATATAATCATTATTTGATTTC / GAAATCAAATAATGATTATATTTTGACTGATAGTGACCTGTTCGTTGCAACAAATTGATAAGCAATGCTTTTTTATAATGCCAACTTAGTATAAAAAAGCTGAACGAGAAACGTAAAATGATATAAATATCAATATAATAAATTAGATTTTGGATAAAAAACAGACTAGATAATACTGTAAAACACAAGATATGCAGACAATATGAATCAACTACATAGATGGTATTAGTGACCTGTAACAGC [attP.a ; attP.a]”, the activity (% fluorescent cells) (attP.a x attP.a, no IHF plasmid) is reported as 1.9.

In the case of “TCTGTTACAGGTCACTAATACCATCTAAGTAGTTGATTCATAGTGACTGCATATGTTGTGTTTTACAGTATTATGTAGTCTGTTTTTTATGCAAAATCTAATTTAATATATTGATATTTATATCATTTTACGTTTCTCGTTCAGCTTTTTTATACTAAGTTGGCATTATAAAAAAGCATTGCTTATCAATTTGTTGCAACGAACAGGTCACTATCAGTCAAAATAAAATCATTATTTGATTTC / GAAATCAAATAATGATTTTATTTTGACTGATAGTGACCTGTTCGTTGCAACAAATTGATAAGCAATGCTTTTTTATAATGCCAACTTAGTATAAAAAAGCTGAACGAGAAACGTAAAATGATATAAATATCAATATATTAAATTAGATTTTGCATAAAAAACAGACTACATAATACTGTAAAACACAACATATGCAGTCACTATGAATCAACTACTTAGATGGTATTAGTGACCTGTAACAGA / CTGCTTTTTTATACTAACTTG / CAAGTTAGTATAAAAAAGCAG [attP ; attB]”, the activity (% fluorescent cells) (attP x attB, with IHF, 1.1% without IHF plasmid) is reported as 1.7.

Work on “TCTGTTACAGGTCACTAATACCATCTAAGTAGTTGATTCATAGTGACTGCATATGTTGTGTTTTACAGTATTATGTAGTCTGTTTTTTATGCAAAATCTAATTTAATATATTGATATTTATATCATTTTACGTTTCTCGTTCAGCTTTTTTATACTAAGTTGGCATTATAAAAAAGCATTGCTTATCAATTTGTTGCAACGAACAGGTCACTATCAGTCAAAATAAAATCATTATTTGATTTC / GAAATCAAATAATGATTTTATTTTGACTGATAGTGACCTGTTCGTTGCAACAAATTGATAAGCAATGCTTTTTTATAATGCCAACTTAGTATAAAAAAGCTGAACGAGAAACGTAAAATGATATAAATATCAATATATTAAATTAGATTTTGCATAAAAAACAGACTACATAATACTGTAAAACACAACATATGCAGTCACTATGAATCAACTACTTAGATGGTATTAGTGACCTGTAACAGA / GCTGTTACAGGTCACTAATACCATCTACGTAGTTGATTCATATTGTCTGCATATCTTGTGTTTTACAGTATTATCTAGTCTGTTTTTTATCCAAAATCTAATTTATTATATTGATATTTATATCATTTTACGTTTCTCGTTCAGCTTTTTTATACTAACTTG / CAAGTTAGTATAAAAAAGCTGAACGAGAAACGTAAAATGATATAAATATCAATATAATAAATTAGATTTTGGATAAAAAACAGACTAGATAATACTGTAAAACACAAGATATGCAGACAATATGAATCAACTACGTAGATGGTATTAGTGACCTGTAACAGC [attP ; attR.b]” yielded an activity (% fluorescent cells) (attP x attR.b, with IHF and XIS) of 1.1.
